Drawing on patent US20040141968A1, this text covers Kd, koff and kon for 1 substance.

The target in test [1] is recombinant soluble CMV envelope glycoprotein B (human cytomegalovirus) (UniProt P13201). Briefly: SPR (Biacore); DC-SIGN CRD injected over immobilised CMV gB; from koff/kon.
The target is the same in test [2]. Briefly: SPR (Biacore); DC-SIGN CRD injected over immobilised CMV gB; Langmuir fit, average.

Chain of recombinant soluble CRD of DC-SIGN (amino acids 254-404) (Q9NNX6 254-404 limits assumed): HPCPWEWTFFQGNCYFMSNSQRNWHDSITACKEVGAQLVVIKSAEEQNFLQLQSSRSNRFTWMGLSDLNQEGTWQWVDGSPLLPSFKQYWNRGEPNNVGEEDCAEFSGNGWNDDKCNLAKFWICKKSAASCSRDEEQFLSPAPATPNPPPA

Consider “recombinant soluble CRD of DC-SIGN (amino acids 254-404) (from UniProt Q9NNX6 254-404) (receptor)”, for which the dissociation constant (Kd) in test [1] turned out to be 290 nM. Further, in test [2], the koff turned out to be 0.00126 s⁻¹ and the kon stood at 4400 M⁻¹ s⁻¹.
